No end group written: not given here.
Each binder was assayed against recombinant wild-type (wt) human kallikrein 2 (human, UniProt P20151 25-261) (assay: cell-based or functional assay).

With GPARRPFG-OH [GPARRPFG (SEQ ID NO:27)] as the binder, how does the inhibition read?
The inhibition was 0%.

With Ac-ARFKVWWAA [Ac-ARFKVWWAA (SEQ ID NO:81)] as the binder, how does the inhibition read?
Its inhibition is 93%.

With GPARRPFAVTAG-OH [GPARRPFAVTAG (SEQ ID NO:21)] as the binder, how does the inhibition read?
The inhibition was 17%.

How did the inhibition turn out when ARFKVWWA-NH2 [ARFKVWWA(CONH2) (SEQ ID NO:82)] was run?
Its inhibition is 86%.

SRFKVG-OH [SRFKVG (SEQ ID NO:71)] was tested. Which inhibition did it give?
Its inhibition is 7%.

With GAARRPFAAPSG [GAARRPFAAPSG (SEQ ID NO:12)] as the binder, how does the inhibition read?
Its inhibition is 24%.

With GAAARPFPAPSG [GAAARPFPAPSG (SEQ ID NO:8)] as the binder, how does the inhibition read?
The inhibition was 0%.

How did the inhibition turn out when GAARRPFPVTAG [GAARRPFPVTAG (SEQ ID NO:16)] was run?
Its inhibition is 61%.

How did the inhibition turn out when GPARRPFPVTG-OH [GPARRPFPVTG (SEQ ID NO:24)] was run?
Its inhibition is 48%.

GAARAPFPAPSG [GAARAPFPAPSG (SEQ ID NO:9)] was tested. Which inhibition did it give?
The inhibition was 0%.

ARFKVWWA [ARFKVWWA (SEQ ID NO:79)] was tested. Which inhibition did it give?
The inhibition was 95%.

AARRPFPG [AARRPFPG (SEQ ID NO:47)] was tested. Which inhibition did it give?
The inhibition was 28%.

For AAARRPAPG [AAARRPAPG (SEQ ID NO:46)], which inhibition is on record?
The inhibition was 51%.

For SRFKVWWAG-OH [SRFKVWWAG (SEQ ID NO:68)], which inhibition is on record?
The inhibition was 80%.

How did the inhibition turn out when GPVTAG-OH [GFVTAG as printed in Table 6 (SEQ ID NO:37)] was run?
Its inhibition is 0%.

For GRRPFPVTAG-OH [… as printed in Table 6 (SEQ ID NO:33)], which inhibition is on record?
Its inhibition is 2%.

For GPARRAFPVTAG-OH [GPARRAFPVTAG (SEQ ID NO:19)], which inhibition is on record?
The inhibition was 0%.

With SRFKG-OH [SRFKG (SEQ ID NO:72)] as the binder, how does the inhibition read?
Its inhibition is 0%.

Which inhibition does the source give for RFKVWWAAG-OH [RFKVWWAAG (SEQ ID NO:65)] here?
Its inhibition is 22%.

For GPARRPAPVTAG-OH [GPARRPAPVTAG (SEQ ID NO:20)], which inhibition is on record?
The inhibition was 49%.

For GPARRG-OH [GPARRG (SEQ ID NO:29)], which inhibition is on record?
Its inhibition is 8%.

With RRPFP [RRPFP (SEQ ID NO:40)] as the binder, how does the inhibition read?
The inhibition was 0%.

How did the inhibition turn out when GVTAG-OH [GVTAG (SEQ ID NO:38)] was run?
Its inhibition is 0%.

Which inhibition does the source give for GAARRAFPAPSG [GAARRAFPAPSG (SEQ ID NO:10)] here?
The inhibition was 0%.

How did the inhibition turn out when RRPAG-OH [RRPAG (SEQ ID NO:41)] was run?
The inhibition was 0%.

GPARRPG-OH [GFARRFG as printed in Table 6 (SEQ ID NO:28)] was tested. Which inhibition did it give?
The inhibition was 4%.

How did the inhibition turn out when GAARRPFPAPSG [GAARRPFPAPSG (SEQ ID NO:7)] was run?
The inhibition was 77%.

With GRPFPVTAG-OH [… as printed in Table 6 (SEQ ID NO:34)] as the binder, how does the inhibition read?
Its inhibition is 0%.

How did the inhibition turn out when GPARRPFPVG-OH [GPARRPFPVG (SEQ ID NO:25)] was run?
Its inhibition is 37%.

How did the inhibition turn out when WWAAG-OH [WWAAG (SEQ ID NO:67)] was run?
The inhibition was 0%.

Which inhibition does the source give for GPAARPFPVTAG-OH [GPAARPFPVTAG (SEQ ID NO:17)] here?
Its inhibition is 0%.

Which inhibition does the source give for ARFKVWWG [ARFKVWWG (SEQ ID NO:75)] here?
The inhibition was 94%.

For GPARRPFPG-OH [GPARRPFPG (SEQ ID NO:26)], which inhibition is on record?
The inhibition was 33%.

Ac-ARFKVWWG [Ac-ARFKVWWG (SEQ ID NO:76)] was tested. Which inhibition did it give?
The inhibition was 93%.

For GAARRPFPAPAG [GAARRPFPAPAG (SEQ ID NO:14)], which inhibition is on record?
Its inhibition is 78%.

Which inhibition does the source give for FKVWWAAG [FKVWWAAG (SEQ ID NO:66)] here?
Its inhibition is 0%.

GAARRPFPAASG [GAARRPFPAASG (SEQ ID NO:13)] was tested. Which inhibition did it give?
The inhibition was 69%.

With RRPFG-OH [RRPFG (SEQ ID NO:42)] as the binder, how does the inhibition read?
Its inhibition is 0%.

Ac-ARFKVWWGG [Ac-ARFKVWWGG (SEQ ID NO:77)] was tested. Which inhibition did it give?
Its inhibition is 92%.

Which inhibition does the source give for RRPAP [RRPAP (SEQ ID NO:39)] here?
The inhibition was 0%.

GRRPFPG-OH [GRRPFPG (SEQ ID NO:44)] was tested. Which inhibition did it give?
The inhibition was 0%.

For ARFKVWWGG [ARFKVWWGG (SEQ ID NO:78)], which inhibition is on record?
Its inhibition is 93%.

How did the inhibition turn out when Ac-SRFKVWWG [Ac-SRFKVWWG (SEQ ID NO:74)] was run?
Its inhibition is 86%.

How did the inhibition turn out when GPARRPFPVAAG-OH [GPARRPFPVAAG (SEQ ID NO:23)] was run?
The inhibition was 45%.

SRFKVWG-OH [SRFKVWG (SEQ ID NO:70)] was tested. Which inhibition did it give?
The inhibition was 8%.

Which inhibition does the source give for GPARG-OH [GPARG (SEQ ID NO:30)] here?
The inhibition was 0%.

With GARRPFPVTAG [GARRPFPVTAG (SEQ ID NO:32)] as the binder, how does the inhibition read?
The inhibition was 27%.

Which inhibition does the source give for GAARRPAPAPSG [GAARRPAPAPSG (SEQ ID NO:11)] here?
The inhibition was 75%.

GPARRPFPATAG-OH [GPARRPFPATAG (SEQ ID NO:22)] was tested. Which inhibition did it give?
Its inhibition is 58%.

With AARRPAPG-OH [AARRPAPG (SEQ ID NO:45)] as the binder, how does the inhibition read?
Its inhibition is 36%.

Which inhibition does the source give for Ac-ARFKVWWA [Ac-ARFKVWWA (SEQ ID NO:80)] here?
Its inhibition is 94%.

With GFPVTAG-OH [GFFVTAG as printed in Table 6 (SEQ ID NO:36)] as the binder, how does the inhibition read?
Its inhibition is 0%.

GPFPVTAG-OH [GFFPVTAG as printed in Table 6 (SEQ ID NO:35)] was tested. Which inhibition did it give?
The inhibition was 0%.

GRRPAPG-OH [GRRPAPG (SEQ ID NO:43)] was tested. Which inhibition did it give?
The inhibition was 0%.

How did the inhibition turn out when GPARAPFPVTAG-OH [GPARAPFPVTAG (SEQ ID NO:18)] was run?
Its inhibition is 0%.
